Laboratory results taken from patent publication US20260274921A1.
pEC50: −log10 of the molar value.

Tests used:
[1] = target: His-tagged CD47 extracellular domain (ECD) protein (Abclonal, CAT #RP01306) (human) (UniProt Q08722); test: ELISA; pH 6.0; conditions: Fc fusion
[2] = target: His-tagged CD47 extracellular domain (ECD) protein (Abclonal, CAT #RP01306) (human) (UniProt Q08722); test: ELISA; pH 7.2; conditions: Fc fusion

His-tagged CD47 extracellular domain (ECD) protein (Abclonal, CAT #RP01306) (human), sequence (Q08722 19-139): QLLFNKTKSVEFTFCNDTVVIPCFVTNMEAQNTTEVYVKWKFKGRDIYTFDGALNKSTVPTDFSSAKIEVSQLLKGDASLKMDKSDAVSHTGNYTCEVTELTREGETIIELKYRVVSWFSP

**Q.** With SIN-304, SIRPαV2 K68H IgV-IgG1 Fc as the substance, how does the pEC50 [1] read?
**A.** 9.11

**Q.** SIN-302, SIRPαV2 R69H IgV-IgG1 Fc was tested. Which pEC50 [1] did it give?
**A.** 7.52

**Q.** What about the pEC50 [2] of the same substance?
**A.** 6.80

**Q.** How did the pEC50 [1] turn out when SIN-303, SIRPαV2 Q52H IgV-IgG1 Fc was run?
**A.** 9.20

**Q.** What about the pEC50 [2] of the same substance?
**A.** 8.16

**Q.** How did the pEC50 [1] turn out when SIN-301, SIRPαV2 K53H IgV-IgG1 Fc was run?
**A.** 8.87

**Q.** How did the pEC50 [1] turn out when “SIN-300, wild type SIRPαV2 IgV-IgG1 Fc fusion protein” was run?
**A.** 9.18

**Q.** And the pEC50 [2]?
**A.** 8.42
